Here are results for three molecules from US20050186575A1.

In experiment [1] the target is HR1 peptide of the SARS-CoV spike protein (SARS-CoV). The experiment is described as follows: pooled complexes heated 5 min in 1x Tricine sample buffer, Tricine SDS-PAGE.
Experiment [2] deals with MHV-A59 spike protein (mouse hepatitis virus strain A59) (UniProt P11224). The experiment is described as follows: cell-based or functional assay.
The target in experiment [3] is T1, HR1 peptide of the MHV-A59 spike protein (amino acid residues 953-1048) (mouse hepatitis virus strain A59), P11224.
T1 sequence (P11224 953-1048, tags left off): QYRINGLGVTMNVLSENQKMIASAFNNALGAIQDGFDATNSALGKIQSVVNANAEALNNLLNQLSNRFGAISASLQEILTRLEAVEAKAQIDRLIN
The target in experiment [4] is T1, HR1 peptide of the MHV-A59 spike …. The experiment is described as follows: pooled complexes heated 5 min in 1x Tricine sample buffer, Tricine SDS-PAGE.

“HR2 peptide of the SARS-CoV spike protein”: the temperature of dissociation of the complex in experiment [1] was found to be 70 °C.
Turning to “HR2 peptide of the MHV-A59 spike protein (amino acid residues 1216-1254)”, in experiment [2], the EC50 of inhibition of MHV infection of LR7 cells came to 900 nM and the spike-mediated cell-cell fusion (luciferase activity) (fold reduction at 10 µM) came to 1000.

B1: HR2 peptide of the MHV-A59 spike protein (amino acid residues 1216-1254) (peptide)
peptide: GPIEGRDLSLDFEKLNVTLLDLTYEMNRIQDAIKKLNESYINLKE
modifications: not checked
In experiment [3], B1 came in with a temperature of full dissociation of the complex of 90 °C, a temperature of partial dissociation of the complex of 80 °C and a temperature up to which the complex remained intact of 70 °C. The temperature of dissociation of the complex in experiment [4] is 90 °C.
